Assay results reported in US20230079150A1, “METHODS FOR PREVENTION OR TREATMENT OF VIRUS-INDUCED ORGAN INJURY OR FAILURE WITH IL-22 DIMER” (priority 2020, published 2023).
Read-outs that look alike come from different tables or passages of the source.

What was measured:
C57BL/6 mice [1] = experiment: LPS acute lung injury mouse model: BAL cell counts; assay type: in vivo; details: for BAL total cell counts: F-652 4 μg tail vein at 30 min
Protocol: (§1) After approval from the Tulane University, Institutional Animal Care and Use Committee (protocol ID 607), equal numbers of male and female, 6-8 week old C57BL/6 mice (Charles River Laboratories, Cambridge, Mass.) were given acute lung injury (ALI) via intra-tracheally administered LPS. After obtaining appropriate depth of anesthesia using isoflurane, the high-dose LPS group (HDG) received 100 μg of LPS administered intra-tracheally. Approximately 30 minutes after LPS administration, 4 μg of F-652 was administered via tail vein injection (n=11), then compared to animals receiving sham injection (n=8) with phosphate-buffered saline (PBS). In the low-dose LPS group (LDG), 33.3 μg of LPS was administered intra-tracheally. F-652 was again administered at 30 minutes (n=9) and compared to sham injected animals (n=9). The Interleukin-22:Fc (F-652) protein is a recombinant fusion protein (F-652) (Evive Biotech, Shanghai, China) with two human IL-22 molecules linked to the Fc portion of human immunoglobulin G2, which extends the half-life of the molecule.
(§2) Euthanasia and bronchoalveolar lavage (BAL) was carried out on post-injury day 4. After obtaining appropriate levels of anesthesia with inhaled isoflurane, the trachea was cannulated using a 26 gauge needle and BAL was performed with three successive washes using 1 mL of PBS. Next, a small segment of the left lower lobe was removed and saved for RNA isolation. Finally, 1 cc of 4% paraformaldehyde was injected to the lung for fixation.
(§3) The BAL fluid was then centrifuged at 500×gravity for 5 minutes. Cells were obtained from the BAL after centrifuge and cell counts performed. Cells were then affixed to glass slides and stained with Wright's stain. To quantify protein in the BAL supernatant, a Bradford protein assay (Bio-Rad Laboratories) was performed. Protein was quantified by measuring absorbance at 595 nm on a BMG Labtech FLUOstar Optima plate reader. In addition, the BAL supernatant was used to measure pro-inflammatory cytokines using a Milliplex Mouse Cytokine/Chemokine Magnetic Bead Panel (Millipore Sigma). The 32 cytokines measured included Eotaxin, Granulocyte Colony-Stimulating Factor (G-CSF), Granulocyte-Monocyte Colony-Stimulating Factor (GM-CSF), Interferon-γ (IFN-γ), Interleukin-1α (IL-1α), IL-1, IL-2, IL-3, IL-4, IL-5, IL-6, IL-7, IL-9, IL-10, IL-12 (p40 segment), IL-12 (p70 segment), IL-13, IL-15, IL-17, Interferon-γ induced protein 10 (IP-10), keratinocyte chemoattractant (KC), leukemia inhibitory factor (LIF), lipopolysaccharide-induced CXC chemokine (LIX), monocyte chemoattractant protein-1 (MCP-1), macrophage colony-stimulating factor (M-CSF), monokine induced by gamma-interferon (MIG), MIP-1α, macrophage inflammatory protein-1β/CCL4 (MIP-1β), MIP-2, regulated upon activation, normal T-cell expressed and presumably secreted (RANTES), tumor necrosis factor-α (TNF-α), vascular endothelial growth factor (VEGF). Human IL-22 was measured using an IL-22 Human ELISA kit (ThermoFisher Scientific). Mouse IL-22 was measured using an IL-22 Mouse/Rat Quantikine ELISA kit (R&D Systems).

C57BL/6 mice [2] = experiment: LPS acute lung injury mouse model: BAL inflammatory mediators (Milliplex cytokine panel); assay type: in vivo; details: day 4
Protocol: as §1, §2, §3

mouse IL-22 = experiment: LPS acute lung injury mouse model: endogenous mouse IL-22 ELISA in BAL; assay type: in vivo, mice; details: low-dose LPS; F-652 4 μg tail vein; day 4; sham non-detectable
Protocol: as §1, with “The Interleukin-22:Fc (F-652) protein is a recombinant fusion protein (F-652) (Evive Biotech, Shanghai, China) with two human IL-22 molecules linked to the Fc portion of human immunoglobulin G2, which extends the half-life of the molecule.” left out
The BAL fluid was then centrifuged at 500×gravity for 5 minutes. […] To quantify protein in the BAL supernatant, a Bradford protein assay (Bio-Rad Laboratories) was performed. Protein was quantified by measuring absorbance at 595 nm on a BMG Labtech FLUOstar Optima plate reader. […] Human IL-22 was measured using an IL-22 Human ELISA kit (ThermoFisher Scientific). Mouse IL-22 was measured using an IL-22 Mouse/Rat Quantikine ELISA kit (R&D Systems).

[3] = tested on: H1N1 influenza (A/PR8 strain); assay type: in vivo, C57BL/6 mice; details: both aged and young H1N1-infected mice
[4] = tested on: H1N1 influenza (A/PR8 strain)

B1: F-652: recombinant IL-22 dimer consisting of two monomeric subunits each comprising a sequence shown in SEQ ID NO: 24 (protein)
chain 1: APISSHCRLDKSNFQQPYITNRTFMLAKEASLADNNTDVRLIGEKLFHGVSMSERCYLMKQVLNFTLEEVLFPQSDRFQPYMQEVVPFLARLSNRLSTCHIEGDDLHIQRNVQKLKDTVKKLGESGEIKAIGELDLLFMSLRNACIGSGGGSGGGGSGGGGSVECPPCPAPPVAGPSVFLFPPKPKDTLMISRTPEVTCVVVDVSHEDPEVQFNWYVDGVEVHNAKTKPREEQFNSTFRVVSVLTVVHQDWLNGKEYKCKVSNKGLPASIEKTISKTKGQPREPQVYTLPPSREEMTKNQVSLTCLVKGFYPSDIAVEWESNGQPENNYKTTPPMLDSDGSFFLYSKLTVDKSRWQQGNVFSCSVMHEALHNHYTQKSLSLSPGK
chain 2: B1 chain 1
modifications: homodimer
C57BL/6 mice [1]; high-dose LPS (100 μg intra-tracheal), day 4, sham 3.15×10^6
  BAL total cell counts: 5.40×10^5 cells
C57BL/6 mice [1]; high-dose LPS, F-652 4 μg tail vein, day 4, sham 2.72×10^6
  BAL macrophage counts: 1.21×10^5 cells
C57BL/6 mice [1]; high-dose LPS, F-652 4 μg tail vein, day 4, sham 8.99×10^5
  BAL neutrophil counts: 3.69×10^4 cells
C57BL/6 mice [1]; high-dose LPS, F-652 4 μg tail vein, day 4, sham 213,225
  BAL lymphocyte counts: 2,163 cells
C57BL/6 mice [1]; low-dose LPS (33.3 μg intra-tracheal), post-injury day 4, sham 433,889
  BAL total cell counts: 364,444 cells
C57BL/6 mice [1]; low-dose LPS, F-652 4 μg tail vein, day 4, sham 6,556
  BAL lymphocyte count: 1,864 cells
C57BL/6 mice [1]; low-dose LPS, F-652 4 μg tail vein, day 4, sham 6,869
  BAL neutrophil count: 1,653 cells
C57BL/6 mice [1]; low-dose LPS, F-652 4 μg tail vein, day 4, sham 429,262
  BAL macrophage count: 290,611 cells
C57BL/6 mice [2]; high dose LPS, F-652 4 μg i.v.
  C-X-C Motif Chemokine 5 (LIX) in BAL: 0.00 ± 0.00 pg/mL
  Eotaxin in BAL: 4.63 ± 2.43 pg/mL
  Granulocyte-Macrophage Colony-Stimulating Factor in BAL: 0.00 ± 0.00 pg/mL
  Interferon-γ in BAL: 8.08 ± 2.18 pg/mL
  Interferon-γ-Induced Protein-10 in BAL: 118.40 ± 43.72 pg/mL
  Interleukin-1α in BAL: 69.39 ± 5.91 pg/mL
  Interleukin-1β in BAL: 3.48 ± 1.25 pg/mL
  Interleukin-2 in BAL: 7.33 ± 0.83 pg/mL
  Interleukin-3 in BAL: 1.07 ± 0.02 pg/mL
  Interleukin-4 in BAL: 1.09 ± 0.09 pg/mL
  Interleukin-5 in BAL: 7.86 ± 1.14 pg/mL
  Interleukin-7 in BAL: 1.75 ± 0.18 pg/mL
  Interleukin-9 in BAL: 311.8 ± 38.17 pg/mL
  Interleukin-12 (p40) in BAL: 7.13 ± 1.89 pg/mL
  Interleukin-12 (p70) in BAL: 1.95 ± 1.00 pg/mL
  Interleukin-13 in BAL: 10.56 ± 1.49 pg/mL
  Interleukin-15 in BAL: 6.10 ± 1.02 pg/mL
  Interleukin-17 in BAL: 2.28 ± 0.56 pg/mL
  Keratinocyte Chemoattractant/Growth Regulated Oncogene in BAL: 19.54 ± 3.08 pg/mL
  Macrophage Colony-Stimulating Factor in BAL: 2.89 ± 1.02 pg/mL
  Macrophage Inflammatory Protein-1α in BAL: 45.99 ± 7.56 pg/mL
  Macrophage Inflammatory Protein-1β in BAL: 19.42 ± 7.63 pg/mL
  Macrophage Inflammatory Protein-2 in BAL: 28.63 ± 5.43 pg/mL
  Monocyte Chemoattractant Protein in BAL: 14.66 ± 7.16 pg/mL
  Monocyte Induced by Interferon-γ in BAL: 100.60 ± 35.47 pg/mL
  Vascular Endothelial Growth Factor in BAL: 12.18 ± 3.03 pg/mL
C57BL/6 mice [2]; high-dose LPS, F-652 4 μg tail vein, sham 4.05
  Interleukin-10 level in BAL fluid: 22.10 pg/mL
C57BL/6 mice [2]; high-dose LPS, F-652 4 μg tail vein, sham 25.41
  TNF-α level in BAL fluid: 5.87 pg/mL
C57BL/6 mice [2]; high-dose LPS, F-652 4 μg tail vein, sham 527.1
  IL-6 level in BAL fluid: 110.6 pg/mL
C57BL/6 mice [2]; high-dose LPS, F-652 4 μg tail vein, sham 659.6
  G-CSF level in BAL fluid: 95.14
C57BL/6 mice [2]; low dose LPS, F-652 4 μg i.v.
  C-X-C Motif Chemokine 5 (LIX) in BAL: 9.27 ± 6.04 pg/mL
  Eotaxin in BAL: 2.59 ± 1.93 pg/mL
  Granulocyte Colony-Stimulating Factor in BAL: 23.49 ± 9.15 pg/mL
  Granulocyte-Macrophage Colony-Stimulating Factor in BAL: 0.00 ± 0.00 pg/mL
  Interferon-γ in BAL: 1.15 ± 0.42 pg/mL
  Interferon-γ-Induced Protein-10 in BAL: 12.94 ± 3.54 pg/mL
  Interleukin-1α in BAL: 61.31 ± 12.36 pg/mL
  Interleukin-1β in BAL: 0.01 ± 0.01 pg/mL
  Interleukin-2 in BAL: 6.77 ± 1.75 pg/mL
  Interleukin-3 in BAL: 0.00 ± 0.00 pg/mL
  Interleukin-4 in BAL: 0.00 ± 0.00 pg/mL
  Interleukin-5 in BAL: 0.00 ± 0.00 pg/mL
  Interleukin-6 in BAL: 0.95 ± 0.62 pg/mL
  Interleukin-7 in BAL: 0.00 ± 0.00 pg/mL
  Interleukin-9 in BAL: 154.50 ± 37.46 pg/mL
  Interleukin-10 in BAL: 19.91 ± 6.56 pg/mL
  Interleukin-12 (p40) in BAL: 6.87 ± 1.88 pg/mL
  Interleukin-12 (p70) in BAL: 0.00 ± 0.00 pg/mL
  Interleukin-13 in BAL: 2.69 ± 0.93 pg/mL
  Interleukin-15 in BAL: 0.00 ± 0.00 pg/mL
  Interleukin-17 in BAL: 0.40 ± 0.06 pg/mL
  Keratinocyte Chemoattractant/Growth Regulated Oncogene in BAL: 9.11 ± 2.76 pg/mL
  Macrophage Colony-Stimulating Factor in BAL: 0.00 ± 0.00 pg/mL
  Macrophage Inflammatory Protein-1α in BAL: 15.62 ± 2.03 pg/mL
  Macrophage Inflammatory Protein-1β in BAL: 0.00 ± 0.00 pg/mL
  Macrophage Inflammatory Protein-2 in BAL: 20.45 ± 10.88 pg/mL
  Monocyte Chemoattractant Protein in BAL: 0.00 ± 0.00 pg/mL
  Monocyte Induced by Interferon-γ in BAL: 10.52 ± 4.73 pg/mL
  Tumor Necrosis Factor-α in BAL: 3.01 ± 1.79 pg/mL
  Vascular Endothelial Growth Factor in BAL: 3.01 ± 0.50 pg/mL
Mouse IL-22
  endogenous mouse IL-22 level in BAL: 1.22 pg/mL
[3]
  hydroxyproline content of right lung lobes compared to PBS control: significantly reduced
[4]; aged mice, Days 21-64 post-infection, F-652 200 μg/kg once weekly for 3 weeks, no PBS treated mice lost
  mice lost during the treatment phase: 3 mice
[4]; aged mice, F-652 200 μg/kg once weekly, 6-week treatment group
  mice lost during the treatment phase: 2 mice
[4]; young groups, F-652 200 μg/kg once weekly
  mice lost during the treatment phase: no mice were lost
[4]; young or aged mice, Days 21-64 post-infection
  body weight, F-652 vs PBS treatment groups: no notable differences
